Test results published in PMC10897178, “FANCJ DNA helicase is recruited to the replisome by AND-1 to ensure genome stability” (EMBO Reports, 2024).

Target: T1, Flag-tagged FANCJ wild type (human, UniProt Q9BX63 1-1249)
T1 construct: FANCJ (BRIP1, BACH1) DNA helicase, human, open reading frame; purified as full-length protein; Plasmid from Hisao Masai (Uno et al, 2012); also called FANCJ WT; Flag-FANCJ WT; source: HEK 293T, transiently transfected (pCSII-EF-MCS): in whole-cell extract or nuclear fraction; also purified (anti-Flag M2 agarose, 3x Flag-peptide elution)
T1 sequence (looked up): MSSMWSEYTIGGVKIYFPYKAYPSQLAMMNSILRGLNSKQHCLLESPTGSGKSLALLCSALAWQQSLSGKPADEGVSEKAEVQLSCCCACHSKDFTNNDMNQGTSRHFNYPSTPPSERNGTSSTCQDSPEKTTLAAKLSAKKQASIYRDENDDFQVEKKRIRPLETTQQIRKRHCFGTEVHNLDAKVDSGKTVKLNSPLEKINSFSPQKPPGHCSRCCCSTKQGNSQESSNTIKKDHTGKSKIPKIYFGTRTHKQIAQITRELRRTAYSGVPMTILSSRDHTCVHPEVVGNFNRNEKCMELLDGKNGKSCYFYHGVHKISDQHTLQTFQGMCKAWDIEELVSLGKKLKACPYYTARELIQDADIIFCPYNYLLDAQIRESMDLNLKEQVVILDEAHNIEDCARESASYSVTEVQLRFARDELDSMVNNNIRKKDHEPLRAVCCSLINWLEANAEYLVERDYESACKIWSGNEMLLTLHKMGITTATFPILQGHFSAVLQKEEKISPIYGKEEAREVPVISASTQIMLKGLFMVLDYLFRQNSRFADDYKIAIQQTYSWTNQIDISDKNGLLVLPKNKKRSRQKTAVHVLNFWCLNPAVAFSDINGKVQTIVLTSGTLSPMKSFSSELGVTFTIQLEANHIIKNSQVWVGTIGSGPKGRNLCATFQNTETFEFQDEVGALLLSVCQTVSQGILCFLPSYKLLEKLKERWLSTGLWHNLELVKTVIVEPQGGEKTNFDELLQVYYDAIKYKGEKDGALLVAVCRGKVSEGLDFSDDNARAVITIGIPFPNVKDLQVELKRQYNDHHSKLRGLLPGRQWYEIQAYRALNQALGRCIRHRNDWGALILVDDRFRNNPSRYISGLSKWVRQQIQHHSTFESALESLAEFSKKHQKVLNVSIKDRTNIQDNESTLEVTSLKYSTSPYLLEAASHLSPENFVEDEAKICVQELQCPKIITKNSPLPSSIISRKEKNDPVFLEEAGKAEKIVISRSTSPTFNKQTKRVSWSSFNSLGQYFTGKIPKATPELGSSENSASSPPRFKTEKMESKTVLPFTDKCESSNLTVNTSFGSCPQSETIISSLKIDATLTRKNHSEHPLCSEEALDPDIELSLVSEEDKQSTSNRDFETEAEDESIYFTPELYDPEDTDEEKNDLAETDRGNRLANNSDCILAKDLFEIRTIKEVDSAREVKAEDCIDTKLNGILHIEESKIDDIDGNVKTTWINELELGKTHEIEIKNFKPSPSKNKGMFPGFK
Experiment: pull-down; GST-SepB α-helix bundle (0.5 µg) on Glutathione Sepharose 4B beads, purified Flag-FANCJ (0.5 µg) added; 25 mM Tris-HCl pH 7.5, 150 mM NaCl, 0.1% Triton X-100, 4 °C; washes with 300 mM NaCl, 1% Triton X-100; Western blot
Conditions: both partners purified

- binding result: binds
B1: GST-SepB α-helix bundle WT (domain or fragment, human, UniProt O75717 718-824, looked up)
chain: IATEKGQMEEQFWRSVIFHNHLDYLAKNGYEYEESTKNQATKEQQELLMKMLALSCKLEREFRCVELADLMTQNAVNLAIKYASRSRKLILAQKLSELAVEKAAELT
notes: AND-1 (WDHD1), human, α-helix bundle of the SepB domain, amino-acid residues 718-824; Cloned into pGEX-2T; also called GST-SepB α-helix bundle chimeric protein; source: E. coli Rosetta pLysS (DE3), purified (Glutathione Sepharose 4B)
